This note sets out measurements from the supplement of paper PMC12042874.

The nature of this series: amyloid nucleation score (Sup35N fusion, yeast selection) (log enrichment); library NNK2; higher = more nucleation; inactive = no reads after selection. Summed up:
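The nucleation score is the DiMSum log enrichment of output over input reads, centred on the mode score of non-aggregating sequences. Only sequences with 100 or more input reads were scored, using Illumina sequencing of input and output plasmid inserts. Psi-negative yeast expressing Sup35N fused to peptides of 20 random codons were induced 24 hours with 100 μM copper sulfate and grown 7 days at 30°C on medium lacking adenine and uracil.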

± gives the uncertainty stated by the source.

Substance FFYALGYRISDAMEIRRVGS registered an amyloid nucleation score of 2.35 ± 0.059.
Consider AVSVAVLRHLEVRRKVWS, for which the amyloid nucleation score was 1.66 ± 0.15.
With GRYNVDFKSIMRYIECGKTA, the amyloid nucleation score was -0.27 ± 1.1.
SVWGKD came in with an amyloid nucleation score of 0.073 ± 0.63.
Next, NNLLRYSVFNI: “inactive”.
Next, LNDWNFLVMVHISIVIRILF: “inactive”; CIAYRDSTAYHNMTRGTAMV: 3.72 ± 0.043; SYECCNKMQDINSMCGKLYW: 0.274 ± 1.1.
Next, SSIKSSKIGAGGSL: -0.213 ± 0.79; QILPWGVSMEKL: -0.492 ± 0.41; HESHHSALFDCLGWQVLVWL: 6.827 ± 0.049.
As for HRRVVAPNKCWMSLACFWDL, the amyloid nucleation score worked out at 4.33 ± 0.053.
The same measure for RMEVEFFVPW: 2.9 ± 0.11.
Next, SGYVLNAELNAASLLMCGIG: 0.252 ± 0.74.
Turning to TFQSYRDESFSWSRLVSSQR, the amyloid nucleation score was -0.477 ± 0.26.
QCGSSMFRMPVLNWTA registered an amyloid nucleation score of 0.734 ± 0.81.
The same measure for DNYITLIAMKGYKTAYSTVS: -0.116 ± 0.61; for GYVRRSIGYSLLSVVS: -0.121 ± 0.46.
The same measure for GAPSHFCEFCSYSAAKEEYE: “inactive”.
The same measure for GKPTFFMG: 0.6 ± 0.74; for TNGLLNYCSRYTDLDNGSYR: “inactive”.
As to DRLAILSNFGVVMIPTLRLY, the amyloid nucleation score is -0.09 ± 0.4.
The same measure for VSYKWNGEWVRAPFDLQGCI: -0.464 ± 1.1; for TFIVMKIHYRFKVKLICQTC: 0.681 ± 0.46; for RGIFSSVWLLRSIMFGVGSP: -0.016 ± 0.23.
Next, DKTVIPLCFLHFNRT: -1.35 ± 0.78.
The same measure for YMKTN: -0.38 ± 0.32; for VNIILASMHVLLDGCS: -1.08 ± 0.64.
Turning to RSHVVH, the amyloid nucleation score was 1.18 ± 0.68.
Substance FKRRCVDYNFSVVILLH showed an amyloid nucleation score of -2.03 ± 0.76.
Regarding RCVTERFPDM, the amyloid nucleation score came to 0.408 ± 0.5.
The same measure for PSQAGKIMVLKNTRWNHRDC: 1.01 ± 0.52; for NTHGR: 4.61 ± 0.073.
The same measure for GYPSARIKSDMYWNPMNVPT: -0.114 ± 0.37; for CHQVI: 0.383 ± 0.74; for SLLDWYKSRQSLMGAMLHNC: -1.12 ± 0.44.
The substance VVRMVHLSADFQGK showed an amyloid nucleation score of 5.26 ± 0.095.
The same measure for SEVLNVFA: -1.14 ± 0.34; for VFYSWKKLVSVLTSRYGFHV: -0.965 ± 0.78.
The same measure for YQSDK: “inactive”; for FRDQGIFIHLWS: 0.781 ± 0.44.
As to NKATNKTDRVMKPSAKKDTE, the amyloid nucleation score is -0.796 ± 0.39.
Next, CTFFTSTPT: 0.343 ± 0.51; FCDVQDFAVLSGVELLNLSY: -0.751 ± 0.39; ILAITRINA: 1.19 ± 0.13.
Next, QLNAVDMAKPVVGLFREQSY: -0.15 ± 0.39; SCRGDKQERKPIHYVRHIWY: -0.798 ± 0.24.
The same measure for WHGRCWTSAKLAYRTRKTMC: 1.86 ± 0.17; for AVCVENLCPWV: 1.82 ± 0.11.
The substance VINSLMWKFTVIMRGVMNRI showed an amyloid nucleation score of 0.12 ± 0.25.
The same measure for MPPGCRMIFALIVVVIQFNF: 0.04 ± 0.76; for FCRSYCVLVYLWSPYVTGSK: 0.349 ± 0.5.
Turning to WECYLFFCDIVGVGVHWRSS, the amyloid nucleation score is -0.824 ± 0.42.
With VGFSLLNKTLCFGDRCTNIS, the amyloid nucleation score entry is “inactive”.
For the substance SPRLAGVWVH, the amyloid nucleation score is -0.669 ± 0.63.
Next, VTLMSV: 0.504 ± 0.74; RQSNPR: 1.53 ± 0.31.
Substance IVKPSRKLKTQGCMKFNAWL displayed an amyloid nucleation score of -0.284 ± 0.61.
